Assay results taken from patent US20150030560A1.

How the values were obtained:
[1] = target: Detergent-soluble HLA-DR2 purified from MGAR cells (DRB1*1501) (human)
[2] = target: Detergent-soluble HLA-DR1 purified from LG-2 cells (DRB1*0101) (human)
[3] = target: Detergent-soluble HLA-DR4 purified from Priess cells (DRB1*0401) (human)

In the case of “TAL terpolymer (SD-1691), poly[L-Tyr 0.102, L-Ala 0.542, L-Lys 0.353] (peptide)”, the IC50 [1] is reported as 2.7 µM, the Kd [1] is reported as 0.017 µM and the IC50 [2] is reported as 3.3 µM.

In the case of “GTL terpolymer (SD-1697), poly[L-Tyr 0.162, L-Glu 0.259, L-Lys 0.579] (peptide)”, the IC50 [1] is reported as 25.4 µM, the IC50 [2] is reported as 43 µM and the Kd [2] is reported as 0.004 µM. It also gave an IC50 [3] of 43 µM and a Kd [3] of 0.008 µM.

Substance “TGA terpolymer (SD-1690), poly[L-Tyr 0.136, L-Glu 0.21, L-Ala 0.648] (peptide)” has an IC50 [1] of 9.5 µM, a Kd [1] of 0.008 µM and an IC50 [2] of 1.3 µM. For the same substance, the Kd [2] was 0.01 µM, the IC50 [3] was 1 µM and the Kd [3] was 0.008 µM.

With Copolymer 1 (peptide) the IC50 [1] was 10.1 µM, the Kd [1] was 0.082 µM and the IC50 [2] was 8.8 µM. For the same substance, the Kd [2] was 0.074 µM, the IC50 [3] was 10.8 µM and the Kd [3] was 0.015 µM.

Work on “GAL terpolymer (SD-1689), poly[L-Glu 0.153, L-Ala 0.479, L-Lys 0.365] (peptide)” yielded an IC50 [1] of less than 1000 µM, a Kd [1] of 0.017 µM and an IC50 [2] of less than 1000 µM. It also gave an IC50 [3] of less than 1000 µM and a Kd [3] of 0.003 µM.
